Assay results from EP4714971A1 (Shanghai Hansoh Biomedical Co., Ltd., dated 2024).

What was measured:
SEZ6L2-Fc = molecular target: T1, SEZ6L2-Fc (human, UniProt Q6UXD5 28-844, limits assumed); experiment: ELISA, coated Fc fusion protein at 1 ug/mL
T1 construct: The construct is not described beyond its name; also called SEZ6L2 protein; Human SEZ6L2; not shown: Fc

SEZ6L-Fc protein = molecular target: T2, SEZ6L-Fc protein (human, UniProt Q9BYH1 29-958, limits assumed); experiment: ELISA, coated Fc fusion protein at 1 ug/mL
T2 construct: The construct is not described beyond its name; also called SEZ6L protein; Human SEZ6L1; not shown: Fc
T2 sequence (looked up): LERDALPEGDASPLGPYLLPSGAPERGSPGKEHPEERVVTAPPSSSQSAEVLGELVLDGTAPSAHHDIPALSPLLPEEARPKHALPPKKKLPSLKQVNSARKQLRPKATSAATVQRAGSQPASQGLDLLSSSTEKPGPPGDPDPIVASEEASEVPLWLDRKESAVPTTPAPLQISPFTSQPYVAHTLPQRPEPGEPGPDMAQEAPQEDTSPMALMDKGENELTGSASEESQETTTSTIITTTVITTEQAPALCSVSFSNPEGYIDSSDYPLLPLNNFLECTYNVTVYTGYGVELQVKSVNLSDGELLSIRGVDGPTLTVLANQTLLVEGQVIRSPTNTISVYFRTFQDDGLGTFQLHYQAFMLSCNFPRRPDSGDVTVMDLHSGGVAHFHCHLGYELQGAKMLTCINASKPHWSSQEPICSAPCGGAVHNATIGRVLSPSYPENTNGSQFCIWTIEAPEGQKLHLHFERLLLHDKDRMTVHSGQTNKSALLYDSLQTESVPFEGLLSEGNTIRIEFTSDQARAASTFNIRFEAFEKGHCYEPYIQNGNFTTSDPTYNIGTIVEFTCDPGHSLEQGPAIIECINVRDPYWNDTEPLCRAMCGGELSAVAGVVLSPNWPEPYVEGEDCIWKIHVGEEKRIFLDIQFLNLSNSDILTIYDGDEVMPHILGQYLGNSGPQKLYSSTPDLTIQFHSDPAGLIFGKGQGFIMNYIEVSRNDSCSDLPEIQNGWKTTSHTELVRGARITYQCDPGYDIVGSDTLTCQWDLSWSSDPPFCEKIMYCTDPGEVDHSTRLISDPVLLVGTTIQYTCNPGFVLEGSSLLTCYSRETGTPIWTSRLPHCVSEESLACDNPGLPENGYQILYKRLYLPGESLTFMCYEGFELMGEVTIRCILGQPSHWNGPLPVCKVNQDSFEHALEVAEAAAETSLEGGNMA

T1 sequence (Q6UXD5 28-844 limits assumed): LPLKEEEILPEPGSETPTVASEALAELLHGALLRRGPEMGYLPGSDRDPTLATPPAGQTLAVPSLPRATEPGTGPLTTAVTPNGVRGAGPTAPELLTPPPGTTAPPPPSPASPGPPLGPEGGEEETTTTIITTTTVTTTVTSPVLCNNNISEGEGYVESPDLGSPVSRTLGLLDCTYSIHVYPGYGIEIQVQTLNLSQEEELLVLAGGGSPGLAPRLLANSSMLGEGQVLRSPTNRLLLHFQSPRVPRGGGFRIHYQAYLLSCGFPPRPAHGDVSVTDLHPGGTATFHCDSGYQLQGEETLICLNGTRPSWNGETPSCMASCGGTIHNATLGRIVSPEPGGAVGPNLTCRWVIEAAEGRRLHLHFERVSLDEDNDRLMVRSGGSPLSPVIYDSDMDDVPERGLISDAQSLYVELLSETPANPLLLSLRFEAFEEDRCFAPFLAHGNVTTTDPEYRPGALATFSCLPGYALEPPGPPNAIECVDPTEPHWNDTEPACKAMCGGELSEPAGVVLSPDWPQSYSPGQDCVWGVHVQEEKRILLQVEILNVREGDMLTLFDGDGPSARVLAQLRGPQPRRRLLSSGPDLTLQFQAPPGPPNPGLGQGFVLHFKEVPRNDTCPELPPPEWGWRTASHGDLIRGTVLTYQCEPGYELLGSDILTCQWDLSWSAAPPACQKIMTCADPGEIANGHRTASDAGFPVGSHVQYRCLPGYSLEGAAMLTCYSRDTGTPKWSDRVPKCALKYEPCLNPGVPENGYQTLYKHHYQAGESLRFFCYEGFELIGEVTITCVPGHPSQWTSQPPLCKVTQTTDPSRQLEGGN

binding result (SEZ6L2-Fc): no binding (tested: 10 nM)
binding result (SEZ6L-Fc protein): no binding (tested: 10 nM)
B1: PR3178 (antibody, human IgG1, kappa, V domains shown)
VH: QVQLVQSGAEVKKPGASVKVSCKASGYTFTDYEMHWVRQAPGQGLEWMGGIDPESDNTVYNQKFKGRVTLTEDTSTSTAYMELRSLRSEDTAVYYCTRGDWYFDVWGQGTTVTVSS
VL: DIVMTQSPDSLAVSLGERATINCKSSQSLLNSRTRENYLAWYQQKPGQPPKLLIYWASTRESGVPDRFSGSGSGTDFTLTISSLQAEDVAVYYCGQSYNLFTFGQGTKLEIKR
notes: Humanized, human IgG1, kappa; also called humanized antibody of cAb3009
